Source: US20240392013A1, “IL1RAP ANTIBODIES AND USES THEREOF” (STELEXIS THERAPEUTICS, LLC, priority 2021, published 2024)
Residue numbers refer to the chain shown, from its start. Values belong to the molecule of their own block, whether it stands above or below them.

Tests used:
[1] = target: T1, IL1R1/IL1β/IL1RAP complex (Homo sapiens, UniProt Q9NPH3); experiment: Blocking of IL1R1/IL1β/IL1RAP complex formation, cell-free ELISA; format: biochemical; settings: FIG. 4
T1 construct: extracellular domain Fc-tagged, Cat #10121-H02H; Fc; purchased Sino Biological 10121-H02H (IL1RAP-Fc); 10126-H08H (IL1R1-His); 10139-HNAE (IL1β)
T1 sequence (Q9NPH3 21-367 limits assumed): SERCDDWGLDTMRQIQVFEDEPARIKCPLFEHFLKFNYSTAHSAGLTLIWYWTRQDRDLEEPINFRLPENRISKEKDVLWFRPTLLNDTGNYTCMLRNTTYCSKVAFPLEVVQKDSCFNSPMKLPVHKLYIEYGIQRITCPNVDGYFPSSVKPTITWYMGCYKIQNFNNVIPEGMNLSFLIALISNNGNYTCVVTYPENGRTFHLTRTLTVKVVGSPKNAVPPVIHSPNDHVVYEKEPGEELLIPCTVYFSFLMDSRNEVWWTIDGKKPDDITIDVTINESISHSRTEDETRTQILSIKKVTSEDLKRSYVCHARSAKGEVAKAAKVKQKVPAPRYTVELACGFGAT
Procedure: High-binding 96-well plates were coated with IL1RAP-Fc protein (Sino Biological, Cat #10121-H02H) at concentration of 4 µg/ml and incubated overnight at 4° C. After 3× washes with 0.05% Tween-20 in PBS, pH 7.5, plates were blocked with 1% BSA in PBS for 1 hour at room temperature. Following, wells were incubated with each antibody at concentration of 50 nM for 1 hour at room temperature. Plates were then washed 3× and wells were incubated with premixed complex of IL1R1-His protein (Sino Biological, Cat #10126-H08H) at concentration of […] and IL1β cytokine (Sino Biological, Cat #10139-HNAE) at concentration of […] 1 hour at room temperature. IL1R1/IL1β complex was preincubated in assay buffer (1% BSA in PBS, pH 7.5) for 20 min at room temperature. After 3× washes, plates were incubated with anti-His HRP detection antibody (Medna, Cat #D8212, […]) for 1 hour at room temperature. Following 5× washes, SuperPico chemiluminescent substrate was applied to wells and signal was read on Spectramax M5.

A549 cells = experiment: IL-1-induced IL-6 secretion, ELISA; format: cell-based, human; settings: 66 nM-2 μM, 72 hours, dose-dependent
Procedure: Methods: A549 cells were seeded on CytoOne® 24 well plate (USA Scientific, Cat #CC7682-7524) at 0.05×10^6/mL and were kept at 37° C./5% CO2 in humified incubator. After 6 hours, the cells were treated with IL-1β (0.5 ng/ml) in the presence or absence of IL1RAP antibodies at 66 nM, 200 nM, 666 nM and 2 μM at 37° C./5% CO2 in humified incubator. Cell culture media was collected after 72 hours and was centrifuged at 4° C. for 5 min. All supernatant samples were analyzed in triplicates. Human IL-6 microplate (R&D Part #890045) was incubated for 2 hours at room temperature with standard, control, or supernatant samples (100 μl) diluted in assay diluent RD1W (100 μl). Samples were aspirated and washed with wash buffer (R&D, cat #895003) four times. Human IL-6 conjugate (200p1) (R&D, cat #890046) was added to each well and incubated for 2 hours at room temperature. Aspiration/wash step was repeated as stated above. Equal volume of substrate color reagent A (R&D, cat #895000) and B (R&D, cat #895001) were mixed, and the substrate solution (200 μl) was added to each well and incubated for 20 minutes at room temperature in the dark. Stop solution (50p1) (R&D, cat #895032) was added to each well and optical density was determined at 450 nm by Cytation™ Cell Imaging Multi-Mode Reader (BioTek).

[2] = test system: IL33-induced NFκB activity; experiment: HEK-BlueIL33 NFκB Reporter Assay; format: cell-based, human; settings: nM range, read-out: IC50, inhibition of IL33-induced NFκB activity
Description: HEK-Blue IL33 (Invivogen, Cat #hkb-hil33) cell line was used to monitor NFκB activity upon stimulation with IL33 cytokine. The secreted embryonic alkaline phosphatase reporter gene (SEAP) is inducible expressed under the control of IFN-β minimal promoter fused to NFκB/AP-1. HEK-BlueIL33 cells were also generated upon stable transfection with human IL1RL1 (ST2) gene. Specificity to IL33 cytokine was achieved by blockage of TNF-α and IL1 response. Cells are maintained in the presence of hygromycin (200 μg/ml), zeocin (100 μg/ml) and blasticidin (10 μg/ml).
For the functional assay, cells were plated at a density of 5×10^4 cells/well in 96-well plates. Cells were treated with each antibody at the highest concentration of 200 μg/ml followed by seven serial 1:3 dilutions and incubated for 45 minutes at 37° C./5% CO^2 in humified incubator. Cells were then stimulated with IL33 (12 μM) and incubated overnight at 37° C./5% CO2 in humified incubator. Every treatment was conducted in triplicates. Following, supernatants from each well were mixed with Quanti-Blue substrate (Invivogen, Cat #rep-qb1) according to manufacturer's recommendations and secreted SEAP was measured using spectrophotometer at 650 nm.

B1: 74804_12A21B: anti-IL1RAP mAb; VH SEQ ID NO:6, VL SEQ ID NO:23, κ light chain (antibody, V domains shown)
VH: QVQLLQSGAEVKKPGSSVKVSCKASGGTFSIYAIDWVRQAPGQGLEWMGGIIPIFGTANSAQKFQGRVTITADKSTSTAYMELSSLRSEDTAVYYCARNGATSDAFDMWGQGTMVTVSS
VL: EIVLTQSPGTLSLSPGERATLSCRASLSVSSNYLAWFQQRPGQAPRLLIHGVSRRATGIPDRFSGSGSGTDFTLTISRLEPEDFAVYYCQQYGSSPLTFGGGTKVEIK
modifications: 74804_12A21B VH and 74804_29D13A VH; 74804_12A21B VL
Blocking of IL1R1/IL1β/IL1RAP complex formation [1]: block IL1R1/IL1β/IL1RAP complex formation in a dose dependent manner | IL-1-induced IL-6 secretion (A549 cells): inhibited

IC50 [2]: 9.62 nM
B2: 74804_43F04A: anti-IL1RAP mAb; VH SEQ ID NO:7, VL SEQ ID NO:22, κ light chain (antibody, V domains shown)
VH: B1 VH with A58E, K63N, V68I, S77N, M108I, S118F
VL: B1 VL with H50Y
modifications: 74804_43F04A VH; 74804_07K10A VL, 74804_29D13A VL and 74804_43F04A VL
Blocking of IL1R1/IL1β/IL1RAP complex formation [1]: block IL1R1/IL1β/IL1RAP complex formation in a dose dependent manner | IL-1-induced IL-6 secretion (A549 cells): inhibited
